Experimental data published in the DeepSol protein solubility set.

Experiment: soluble on expression in E. coli; label from the status in PepcDB or PDB records

Sequence	soluble on expression in E. coli
MNKKDFLDFLNQNILILDGATGTELQKRGMPGGVCPEMWVIENPDVIMDIQKDYINAGSNAVYTCTFGGNRIKLSEFGLGDKVVEINKKLAQLSRKAAGEKGLVAGDLAPTGRFVRPFGDMPFEEAVDVYKEQVKGLLEGGVDFFVIETMMDIQEARAALLAVKESCDLPVCVSMTFDESGRTLTGTDSVSALIILQSLGADVVGCNCSTGPQDMIKIIREMKPYAKVPLLAKPNAGLPKLIDGKTRFDMEPEEFGSYIKEFVEAGVNLLGGCCGTSPVYIEQIRKNIEGLKPIPPQPKEICAVASARKTVFVDANEPVVVVGERINPTGKKKLQEELRQGMTSLVRQFAVEQVEKGADILDVNVGMPGIDEKETMVKVVELLSSITDAPLCLDSSSPEVLEAALRIYPGRALINSISAEKVKIEKLLPIAAKYGAAFILLPLGDAGVPKSAGERCKIVEEVFNEASKWGYTKKDVIVDGLVMTVSADQEAAVETLKVIEWCTQSFGCGTIVGLSNVSFGMPERAWINSAFLAMAIGYGLTMAILNPSSDTLMSIKMASDVLKVKDRNSKKYIEHFAALKSDKPQVVEKKDTASPVEKVYDAVVKGDRENIRKYIDDALKDGTEPSIIVDKYLIPAITHVGDLYDRKEYFLPQLIQSAETMKEAFGILEPLLKKEPVDEKGNKVKVILATVKGDIHDIGKNIVGLMLRNYGFEVYDLGKDVSAEEIVKKAKETNAPIIGLSALMTTTMLEMREVVSLVRQEGLNAKIMIGGAVVNADYAKEIGADGYSEDAYGAVKLASKLAGI	soluble
MNKLRRQLSMNSLLIDTSNQPLSVALMQNDEVLAEITTDSKQNHSVQLMPAISQLFEQSKIAKQQLDAIIVAEGPGSYTGLRIGVTVAKTLAYALDVKLYGVSSLKALAATIDHTDKLLVPVFDARRQAVYTGIFQWQNGQLVTILEDQYMSIEALRAFLEDLNQPFIYIGKDTIKLQDELQGEVIAQLPNASVMYQLIDKPTDVHTFTPKYHKLAEAERNWINSQKNN	not soluble
MNKNKPFIVVIVGPTASGKTELSIELAKRINGEIISGDSMQVYKHMNIGTAKVTPEEMDGIPHHLIDILNPDDTFSAYEFKRLAEDLITDITNRGKVPIIAGGTGLYIQSLIYNYELEDETVTPAQLSIVKQKLSALEHLDNQQLHDYLAQFDAVSAENIHPNNRQRVLRAIEYYLKTKKLLSNRKKVQQFTENYDTLLLGIEMSRKTLYSRINKRVDIMLDHGLFREVQQLVEQGYESCQSMQAIGYKELIPVINGQMIYEDAVNDLKQHSRQYAKRQMTWFKNKMSVHWLDKENMSLQMMLDEITTQIKLEHHHHHH	soluble
MNKRIVICADGTWNRPEKDLKVDFPTNVLRLARAISPIAADGKPQQVFYDWGVGSYYDEVIGGATGRGLHKNIMDGYRYIVQNYSPGDEIYLFGFSRGAYTVRCLCGLINNCGILKRPEARLIQQAFDHYKKSSAPFAPSGDKSVEFRHEHCHESREIKFVGVWDTVGAMGIPISFLGLFEDKDEFYDTKIGRNVRVARHALAIDEHRSDFEPTIWQLRDNMDMQQVWFAGAHSNVGGSYLPDKDGSLLSDNALAWMIAEAERFNLSLEPHLTAGLRPNPLATLHDSRRSFYRIKQPYLRPLDPDVAPVLLHRSVKVRWEQDPKYRPKNLQAYLEKFGWPQELIDKLAAALEHHHHHH	soluble
MNKTELIKNVAQNAEISQKEATVVVQTVVESITNTLAAGEKVQLIGFGTFEVRERAARTGRNPQTGEEMQIAASKVPAFKAGKELKEAVK	soluble
MNKTYDFKSITENFNLEGELKTSDSHVCGHINDTFIINCEGENGEEIKYVLQRVNSDIFKNPEQLMENIENVTSHIKNKIIEENGDPLRETLNIVKTKEGKNFYKCKEGNYWRIFNFIHDASTYQIVEKPEHLYTAGKALGKFQKQLSDFNVDMLYDTIPDFHNTEKRFEAFMEAVREDKKGRAKDVKEEIDFVINRAEDTKVLVNMIKENKLPLRVTHNDTKFNNIMIDDETGEGIAVIDLDTVMPGLSLYDFGDSIRSGATTALEDEVDLSKVNFDLNLYEHFTKGFLESAGDAFTKEEIEYLPFAAKLMTFECGMRFLMDYLNGDVYFKIHRENHNLDRARNQFKLVSDMEKEMDNMKKIVYSYILEHHHHHH	not soluble
MNKVIKMLVVTLAFLLVLAGCSGNSNKQSSDNKDKETTSIKHAMGTTEIKGKPKRVVTLYQGATDVAVSLGVKPVGAVESWTQKPKFEYIKNDLKDTKIVGQEPAPNLEEISKLKPDLIVASKVRNEKVYDQLSKIAPTVSTDTVFKFKDTTKLMGKALGKEKEAEDLLKKYDDKVAAFQKDAKAKYKDAWPLKASVVNFRADHTRIYAGGYAGEILNDLGFKRNKDLQKQVDNGKDIIQLTSKESIPLMNADHIFVVKSDPNAKDAALVKKTESEWTSSKEWKNLDAVKNNQVSDDLDEITWNLAGGYKSSLKLIDDLYEKLNIEKQSK	not soluble
MNKVLINDTTLRDGEQAAGVVFTLEEKVAIAKFLDTIGVPELEVGIPAMGEEEMRAICAISNLGLKANLLAWNRAVISDIKASVACGMERVHIAIPVSGIQIAAKFHGQWRVSLQRLKDCISFAVDQGLWVAVGGEDSSRADENFLLDVALYAQEWGASRFRFCDTVGVLDPFTTYGKVKLLVSALTIPVEVHTHNDFGMATANALAGIKAGASSVNTTVIGLGERAGNAALEEVVMAIKRIYGVDMGIDTPRLLELSQLVAAASGANVPPWKAIVGENTFAHESGIHAHGVLQNPDTYEPFAPEEVGWERRLVVGKHSGRHSVSNLLEQHGLEHHHHHH	soluble
MNKYQAVIIGFGKAGKTLAVTLAKAGWRVALIEQSNAMYGGTCINIGCIPTKTLVHDAQQHTDFVRAIQRKNEVVNFLRNKNFHNLADMPNIDVIDGQAEFINNHSLRVHRPEGNLEIHGEKIFINTGAQTVVPPIPGITTTPGVYDSTGLLNLKELPGHLGILGGGYIGVEFASMFANFGSKVTILEAASLFLPREDRDIADNIATILRDQGVDIILNAHVERISHHENQVQVHSEHAQLAVDALLIASGRQPATASLHPENAGIAVNERGAIVVDKRLHTTADNIWAMGDVTGGLQFTYISLDDYRIVRDELLGEGKRSTDDRKNVPYSVFMTPPLSRVGMTEEQARESGADIQVVTLPVAAIPRARVMNDTRGVLKAIVDNKTQRMLGASLLCVDSHEMINIVKMVMDAGLPYSILRDQIFTHPSMSESLNDLFSLVK	soluble
MNLDYLKETYHLTKTESQILYYLDQQSTNAADLSIREVAKHCFSSPSSIIRLAKKLNLSGYNELIYKLKEAHFSQPIPFETAPSFETTNEFCRLLAKHKSHLFVILGHDFSRHLAAYISEVFNFHGIPSITTAYTHSINSQNNQNFLFIILSHSGEEKYLKETALLAKEKKHPIISFVGAKNSTLGRLADLVFSTDSYSPFSTSVAQPQMFFGQTLITFEALICAYLNHEDSIPISHKNK	not soluble
MNLHICEVTAKNWRSVVALDVAKDQQQFIESNAFSLAESLYEGNGTSVGLYDSETLVGYAMYGWYSVKHKSVWLDRFMIDQQYQGKGYAKRFLRLLIQFLQEKFECKIIYLSLHPDNKLAMGLYESFGFRLNGDIDDEGPVVGVVMELLIDENTSL	not soluble
MNLKREQEFVSQYHFDARNFEWENENGAPETKVDVNFQLLQHDQENQVTSLIVILSFMIVFDKFVISGTISQVNHIDGRIVNEPSELNQEEVETLARPCLNMLNRLTYEVTEIALDLPGINLEF	soluble
MNLNIETSRRIELIDITSEVKEEVRISGVREGVCIISTRHTTAGIIVNENENGLREDILNMLERLVPQGAGYRHDRIDNNADSHLKAILLGSSEALPIVKGELELGTWQSIFFAEMDGPRNRAVNLTILKTELEHHHHHH	soluble
MNMIPKVAMFGTGYVGLVSGVCIADFGINVICVDVDKEKIDGLNNGKIPIYEPGLDVFLERNIKAGRIQFTTDAKMAIEESNVLFIAVGTPPKENGEADMQYVYAVAETIGQYMNGYKVIVDKSTVPVGTGQVVKKIIADKLKERGVEYSFDVVSNPEFLREGKALYDFTHPDRVVIGVESEEVAEIMKKVYRPLYINETPFVITNIETAEMIKYASNAFLATKITFINEIANLCEKVGANVQQVAMAMGRDGRIGPKFLHAGPGFGGSCFPKDTKALVQIAEKHGVQMSVVNAVIEANERQKKMVAEKLEKFAGDLKGKTIGILGLAFKPETDDVREAPALTIIADLIERGASIRAYDPQAMEEAKKALRKYADNITYCKHAYDTAESVDALVIVTEWHEFRNMDLTLLKKIMRGNIFYDARNIYSRKDIEEKGFVFIGTGV	not soluble
MNMTDDLGGNILLLSGHPGSGKSTIAEALANLPGVPKVHFHSDDLWGYIKHGRIDPWLPQSHQQNRMIMQIAADVAGRYAKEGYFVILDGVVRPDWLPAFTALARPLHYIVLRTTAAEAIERCLDRGGDSLSDPLVVADLHSQFADLGAFEHHVLPVSGKDTDQALQSAINALQSGRFRIDASLEHHHHHH	soluble
MNNAALRHWKQQQRARLRELRQQVPVTQRMLWSDAITAVLTQGFPFLENQRIGFYWPHQGEYDPIPAMTFLRTRGATLALPEVISKDEPLRFIEWWPEAPMKKDIYGIPFPDNTRGITVDSIIIPLLGFDEQGYRLGYGSGYFDRTLAAMSPRPLAIGVAFEILRLPTIHPQQHDIPMDYIVTEQSILHRTDTGLVPLTAPIVQSETALEHHHHHH	soluble
MNNETTTLISLKEAMKRVDHKLQALETQFKELDFTKDNLMQKFEHHSKALASQAAQDEMWTAVRALQLTSMELNILYSYVIEVLICLHTRVLEKLPDLVRGLPTLASVLRRKVKNKRVRVVWESILEECGLQEGDITALCTFFIARGNKAEHYTAKVRQMYIRDVTFLITNMVKNQALQDSLLRAVQVIEKGKAVRTPEKQKSSLEELIPSVKN	soluble
MNNIRQLTKDEYPKAIELSWQVFTITGKEDFNNEGLEFFKSFIYNKKCINEIIFYGSFDNEALTGILGIKSNGKHISLFFIKPEYHRHGLGKKLFHYASTLHPSIETTVNSSTYAIPFYRSLGFAVVGEKQNYHGLCSTPMRRYHAVFVQKNKYTLRTWQTEDAHSLVQELNNKKIWDNCRNVFPHPYRLEHAETFIDLIQKKEGIHDFCIEVNGKAVGNIGFTPGTDVECFNAEVGYVIGEKYWNQGIVTDALQEAIYHYFTYTNTIRIFALVFEHNLPSMRVLEKAGFNKVGIMTKSIFKNGHFTNAHLFELLKNVLEHHHHHH	not soluble
MNNISIPFEKLGNAKKVGIQLPDGLKRRAIEIAQLIEDRGYDVVISGETSFGACDIDLSILEVVDVLLHFAHTPILKDERVVYVPYFIEYNPKIDLKVDERRIALIATAQYVHKLPEVAEWLRGKGYEVEIGSPRGRVVYPGQVLGCNYSVLRGSNADAVVFIGDGLFHATGAAMYTKKKVYAYNPLSGELKEVDARNFEKKRYLEVSKCVGKSKAGILVSSKPGQRRLRLAEKLKKIGRENGLFCSIIYLNNVRAEELYNLPFDFYVNTACPRIAYDDGARFEKPVISPQEFELLLGLRESIAMDEIEF	not soluble
MNNLALQSLTESIAIKYFGKAFKHEVYYNKRLRTTGGRYILSSHNIEINPKQYEMFGEKAVIDIIKHELCHYFLHLAGEGYQHRDKAFKSLSAKVGAPRFCTPTESYQDRANYKYRCIYCEQEFIRIKRVNLEKMRCGRCGGILKLLQTRKLEHHHHHH	not soluble
MNNQSQVKVGPPLWLLAELTYDCPLHCPYCSNPTELGDTKDELNTEQWLDVLTQARAMGAVQLGFSGGEPLLRKDLEQMVKHSRELGFYTNLITSGIGLTEKRIAKLKVAGLDHIQISFQGADPEMNDIIAGRGNAFEQKFKMAQSVKAQGYPMVLNFVISKQNISQVEDIMRLSCQLNADYVELATAQYYGWAYDNRDHLLPSQQQLIDAEKIVNEFRDKQQGKGPQFIFVTPDYFEVRPKACMNGWGSTFLTIAPDGSALPCHSAKMLPLKFPNVKDKSISDIWQQDFSFNRFRGDSWMPQPCQSCDEKEKDFGGCRCQAFMMTGDMDKTDPVCSKSPDHHLIQEAIERAKHPKNPLLERVNKRSIKDADIVQIKL	not soluble
